Among the data in PMC7575552 are dH values, retold here.

For the assay, the target named is Hsp70 (385–641) (UniProt P0DMV8). The assay is described as follows: ITC; TA Instruments NanoITC, 25 °C, stir speed 600 rpm; 350 µM WT or S20E CHIP titrated into 50 µM Hsp70 (385–641), twenty-four 2 µL injections; triplicate. For orientation: In ITC the heat of successive injections is recorded.
UniProt P0DMV8, sequence (P0DMV8 385-641): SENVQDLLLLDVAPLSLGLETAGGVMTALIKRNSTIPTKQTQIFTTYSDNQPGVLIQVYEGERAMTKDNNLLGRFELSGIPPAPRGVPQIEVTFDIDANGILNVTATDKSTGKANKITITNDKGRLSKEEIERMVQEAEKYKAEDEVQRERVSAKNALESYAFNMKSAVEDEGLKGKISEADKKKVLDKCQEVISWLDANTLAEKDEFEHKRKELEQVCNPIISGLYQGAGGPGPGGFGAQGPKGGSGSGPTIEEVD

In the case of “Recombinant human CHIP S20E (phosphomimetic) (from UniProt Q9UNE7 1-303) (natural protein)”, the dH was -7.67 kcal/mol.
To “Recombinant human CHIP wild type (from UniProt Q9UNE7 1-303) (natural protein)” belongs -6.31 kcal/mol.
